According to patent US20150344580A1 (MSM PROTEIN TECHNOLOGIES, published 2015):
Numbering of substitutions follows the chain as printed.

T1: cyno CXCR3 (cynomolgus monkey, UniProt A0A2K5UV19 1-368)
T1 construct: whole, on cells; CHO cells
T1 sequence: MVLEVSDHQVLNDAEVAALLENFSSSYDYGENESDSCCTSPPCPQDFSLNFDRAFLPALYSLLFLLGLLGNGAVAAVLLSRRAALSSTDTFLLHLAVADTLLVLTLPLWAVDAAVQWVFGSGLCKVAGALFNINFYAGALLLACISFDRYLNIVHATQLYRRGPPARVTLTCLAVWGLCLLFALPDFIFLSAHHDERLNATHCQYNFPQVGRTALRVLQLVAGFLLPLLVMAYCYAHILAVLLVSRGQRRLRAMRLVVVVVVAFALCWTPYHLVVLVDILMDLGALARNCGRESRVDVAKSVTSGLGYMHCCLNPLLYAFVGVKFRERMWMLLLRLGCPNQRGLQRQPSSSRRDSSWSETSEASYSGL

T2: human CCR3 (human, UniProt P51677 1-355)
T2 construct: whole, on cells; CHO cells
T2 sequence (looked up): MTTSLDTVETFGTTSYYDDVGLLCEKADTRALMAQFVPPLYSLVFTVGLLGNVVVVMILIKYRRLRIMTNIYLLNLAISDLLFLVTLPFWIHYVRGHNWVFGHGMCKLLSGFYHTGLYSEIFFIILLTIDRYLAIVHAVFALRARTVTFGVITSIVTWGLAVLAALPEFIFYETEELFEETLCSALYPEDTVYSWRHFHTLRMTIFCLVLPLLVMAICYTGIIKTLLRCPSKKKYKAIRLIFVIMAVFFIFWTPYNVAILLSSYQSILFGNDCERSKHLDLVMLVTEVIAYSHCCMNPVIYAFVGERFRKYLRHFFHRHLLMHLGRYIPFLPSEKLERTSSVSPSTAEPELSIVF

T3: human CCR4 (human, UniProt P51679 1-360)
T3 construct: whole, on cells; CHO cells
T3 sequence (looked up): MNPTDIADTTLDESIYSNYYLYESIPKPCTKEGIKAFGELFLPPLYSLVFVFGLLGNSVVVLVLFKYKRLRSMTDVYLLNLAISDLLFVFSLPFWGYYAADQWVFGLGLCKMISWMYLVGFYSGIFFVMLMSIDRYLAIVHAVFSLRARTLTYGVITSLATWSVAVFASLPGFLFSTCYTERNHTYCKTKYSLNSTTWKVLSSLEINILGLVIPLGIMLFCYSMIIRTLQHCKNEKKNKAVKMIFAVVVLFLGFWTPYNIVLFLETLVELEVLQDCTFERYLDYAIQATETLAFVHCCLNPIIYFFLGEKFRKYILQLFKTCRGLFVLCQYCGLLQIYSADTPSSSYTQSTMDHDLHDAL

T4: mouse CCR6 (mouse, UniProt O54689 1-367)
T4 construct: whole, on cells; CHO cells; also called CCR6 (mouse)
T4 sequence (looked up): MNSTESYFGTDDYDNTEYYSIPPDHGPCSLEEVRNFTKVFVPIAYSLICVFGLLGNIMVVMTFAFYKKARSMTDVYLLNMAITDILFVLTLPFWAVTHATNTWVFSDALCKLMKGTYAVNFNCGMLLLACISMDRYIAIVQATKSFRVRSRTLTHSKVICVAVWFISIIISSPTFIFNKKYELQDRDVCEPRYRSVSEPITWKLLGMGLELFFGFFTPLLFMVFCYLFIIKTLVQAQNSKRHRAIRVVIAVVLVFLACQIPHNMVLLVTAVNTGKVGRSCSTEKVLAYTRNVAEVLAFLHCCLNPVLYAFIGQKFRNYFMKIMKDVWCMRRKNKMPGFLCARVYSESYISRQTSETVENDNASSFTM

T5: human CXCR3 (human, UniProt P49682 1-368)
T5 construct: whole, on cells; R1610 cells
T5 sequence (looked up): T1 sequence with A83T

B1: MSM-R710 (fully human anti-human CCR7 antibody, IgG1) (antibody, V domains shown)
VH: EVQLLESGGGLVQPGGSLRLSCAASGFTFSNYTMHWVRQAPGKGLEWVSGIGPRSGRTYYADSVKGRFTISRDNSKNTLYLQMNSLRAEDTAVYYCARSYAYQYRGFDYWGQGTLVTVSS
VL: EIVLTQSPGTLSLSPGERATLSCRASQSVSSSYLAWYQQKPGQAPRLLIYGASSRATGIPDRFSGSGSGTDFTLTISRLEPEDFAVYYCQSSVTFGQGTKVEIKR
notes: IgG1 format
B2: MSM-R735 (fully human anti-human CCR7 antibody, IgG1) (antibody)
heavy: not shown
light: EIVLTQSPGTLSLSPGERATLSCRASQSVSSSYLAWYQQKPGQAPRLLIYGASSRATGIPDRFSGSGSGTDFTLTISRLEPEDFAVYYCQQGSPVTFGQGTKVEIKRTVAAPSVFIFPPSDEQLKSGTASVVCLLNNFYPREAKVQWKVDNALQSGNSQESVTEQDSKDSTYSLSSTLTLSKADYEKHKVYACEVTHQGLSSPVTKSFNRGEC
notes: IgG1 format; also called R735 Human IgG1

Assays:
cyno CXCR3 = target: T1, cyno CXCR3; test: FACS, CHO-cyno CXCR3 cells
Description: (§1) In more details, the cell staining procedure was: 5000-1000 cell suspension in 10 μl FACS buffer (1×PBS, 2.0% FBS, 0.2% sodium azide) was mixed with 10 μl of 200 nM the corresponding anti-CCR7 MAB and incubated on ice for 30 min. Washing step—after the incubation 150 μl of FACS buffer was added to the cell sample, the samples were mixed gently by up-down pipetting the cell suspension. Then the samples were centrifuged at 1100 rpm for 5 minutes, and supernatants were removed. Washing step was repeated ones. Then 10 μl of anti-human PE-(Fab)2 form Jackson Immuno Research Lab. #709-116-098 diluted 40 times in FACS buffer were added to the cells and the cells were re-suspended by up-down pipetting. After 20 min. incubation on ice in dark the washing step was repeated twice. The washed cells were mixed with 100 μl of FIX buffer (0.5% Paraformaldehyde solution in PBS). Fixed samples were stored in dark on ice and analyzed by FACS on Guava PCA-96 flow cytometer. The fluorescent signals collected from individual cells were obtained using fluorescence Activated Cell Sorter (FACS).

human CCR3 = target: T2, human CCR3; test: FACS, CHO-human CCR3 cells
Description: as §1

human CCR4 = target: T3, human CCR4; test: FACS, CHO-human CCR4 cells
Description: as §1, with “Washing” for “In more details, the cell staining procedure was: 5000-1000 cell suspension in 10 μl FACS buffer (1×PBS, 2.0% FBS, 0.2% sodium azide) was mixed with 10 μl of 200 nM the corresponding anti-CCR7 MAB and incubated on ice for 30 min. Washing”, “cytometer.” for “cytometer. The fluorescent signals collected from individual cells were obtained using fluorescence Activated Cell Sorter (FACS).”
In more details, the cell staining procedure was: […] cell suspension in 10 μl FACS buffer (1×PBS, 2.0% FBS, 0.2% sodium azide) was mixed with 10 μl of 200 nM the corresponding anti-CCR7 MAB and incubated on ice for 30 min. Washing step—after the incubation 150 μl of FACS buffer was added to the cell sample, the samples were mixed gently by up-down pipetting the cell suspension. […] Fixed samples were stored in dark on ice and analyzed by FACS on Guava PCA-96 flow cytometer. The fluorescent signals collected from individual cells were obtained using fluorescence Activated Cell Sorter (FACS).

mouse CCR6 = target: T4, mouse CCR6; test: FACS, CHO-mouse CCR6 cells
Description: as §1

human CXCR6 = target: T6, human CXCR6 (human, UniProt O00574 1-342); test: FACS, CHO-human CXCR6 cells
T6 construct: whole, on cells; CHO cells
T6 sequence (O00574 whole entry): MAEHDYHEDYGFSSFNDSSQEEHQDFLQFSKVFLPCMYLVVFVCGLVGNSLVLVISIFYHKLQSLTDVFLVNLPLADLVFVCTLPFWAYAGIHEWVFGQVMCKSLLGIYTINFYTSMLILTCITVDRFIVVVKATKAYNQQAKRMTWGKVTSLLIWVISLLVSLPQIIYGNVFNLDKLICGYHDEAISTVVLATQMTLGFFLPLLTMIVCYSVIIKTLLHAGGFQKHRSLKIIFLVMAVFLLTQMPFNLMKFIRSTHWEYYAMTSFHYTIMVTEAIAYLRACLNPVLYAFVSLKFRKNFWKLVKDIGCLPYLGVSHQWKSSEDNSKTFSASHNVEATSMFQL

human CXCR4 = target: T7, human CXCR4 (human, UniProt P61073 1-352); test: FACS, Cf2th-human CXCR4 cells
T7 construct: whole, on cells; Cf2th cells
T7 sequence (P61073 whole entry): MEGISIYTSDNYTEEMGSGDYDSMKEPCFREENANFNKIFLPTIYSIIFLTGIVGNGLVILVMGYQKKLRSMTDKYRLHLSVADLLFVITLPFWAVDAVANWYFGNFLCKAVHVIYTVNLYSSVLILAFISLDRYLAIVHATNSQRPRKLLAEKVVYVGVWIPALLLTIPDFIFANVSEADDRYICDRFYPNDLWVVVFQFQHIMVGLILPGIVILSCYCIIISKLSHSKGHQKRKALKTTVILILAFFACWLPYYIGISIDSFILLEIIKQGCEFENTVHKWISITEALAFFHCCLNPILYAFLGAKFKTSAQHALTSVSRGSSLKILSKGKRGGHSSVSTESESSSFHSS
Description: as §1

human CXCR3 = target: T5, human CXCR3; test: FACS, R1610-human CXCR3 cells
Description: as §1

Binder | binding result (cyno CXCR3) | binding result (human CCR3) | binding result (human CCR4) | binding result (mouse CCR6) | binding result (human CXCR6) | binding result (human CXCR4) | binding result (human CXCR3)
B1 | no binding (tested: 200 nM MAB mixed 1:1 with cells) | no binding (tested: 200 nM MAB mixed 1:1 with cells) | no binding (tested: 200 nM MAB mixed 1:1 with cells) | no binding (tested: 200 nM MAB mixed 1:1 with cells) | no binding (tested: 200 nM MAB mixed 1:1 with cells) | no binding (tested: 200 nM MAB mixed 1:1 with cells) | no binding (tested: 200 nM MAB mixed 1:1 with cells)
B2 | no binding (tested: 200 nM MAB mixed 1:1 with cells) | no binding (tested: 200 nM MAB mixed 1:1 with cells) | no binding (tested: 200 nM MAB mixed 1:1 with cells) | no binding (tested: 200 nM MAB mixed 1:1 with cells) | no binding (tested: 200 nM MAB mixed 1:1 with cells) | no binding (tested: 200 nM MAB mixed 1:1 with cells) | no binding (tested: 200 nM MAB mixed 1:1 with cells)
